Patent US20030154500, “Nucleic acid transfer vector for the introduction of nucleic acid into the DNA of a cell” (Regents of the University of Minnesota, published 2003)

T1: SB transposase N123 (N-terminal DNA-binding domain, residues 1-123) (synthetic (salmonid consensus))
T1 chain: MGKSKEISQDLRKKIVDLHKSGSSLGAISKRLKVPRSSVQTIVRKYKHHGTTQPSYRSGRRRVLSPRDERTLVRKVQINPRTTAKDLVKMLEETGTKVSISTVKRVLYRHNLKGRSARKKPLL


Molecular target: T1, SB transposase N123 (N-terminal …)
Test: footprint; DNase I, 30-bp protected region within left IR probe
Conditions: tags: C-terminal His tag (pET21a)
Procedure: In addition to the NLS function, N123 also contains the specific DNA-binding domain of SB, as tested in a mobility-shift assay (FIG. 3B). A 300 bp EcoRI/HindIII fragment of pT comprising the left inverted repeat of the element was end-labeled using [α³²P]dCTP and Klenow. Nucleoprotein complexes were formed in 20 mM HEPES (pH 7.5), 0.1 mM EDTA, 0.1 mg/ml BSA, 150 mM NaCl, 1 mM DTT in a total volume of 10 μl. Reactions contained 100 pg labeled probe, 2 μg poly[dI][dC] and 1.5 μl N123. After 15 min incubation on ice, 5 μl of loading dye containing 50% glycerol and bromophenol blue was added and the samples loaded onto a 5% polyacrylamide gel (Ausubel). DNaseI footprinting was done using a kit from BRL according to the recommendations of the manufacturer. […]
The number of the deoxyribonucleoprotein complexes detected by the mobility-shift assay at increasingly higher N123 concentrations indicated two protein molecules bound per IR (FIG. 3B, right panel), consistent with either two binding sites for transposase within the IR or a transposase dimer bound to a single site. Transposase-binding sites were further analyzed and mapped in a DNasel footprinting experiment. […]

Binder | binding result
salmonid outer transposase-binding site (dsDNA) DNA 1: GTTGAAGTCGGAAGTTTACATACACTTAGG DNA 2: CCTAAGTGTATGTAAACTTCCGACTTCAAC | binds
salmonid internal transposase-binding site (dsDNA) DNA 1: CCAGTGGGTCAGAAGTTTACATACACTAAG DNA 2: CTTAGTGTATGTAAACTTCTGACCCACTGG | binds
